Where “and” joins values, the source holds several entries; their conditions need not be identical. Equal entries are not always repeated.

The conditions of the series: Chlamydomonas reinhardtii, Thermal, glycine-HCl 10 mM, reversible: yes, whole UniProt chain shown.

B1: Thioredoxin H-type wild type, P80028 (protein)
chain: MGGSVIVIDSKAAWDAQLAKGKEEHKPIVVDFTATWCGPCKMIAPLFETLSNDYAGKVIFLKVDVDAVAAVAEAAGITAMPTFHVYKDGVKADDLVGASQDKLKALVAKHAAA
As to B1, the Tm reads like this: (pH 2.13, Fluorescence) 35.4 °C; (pH 2.25, CD) 37.7 °C and 34.5 °C; (pH 2.25, DSC) 40 °C; (pH 2.25, Fluorescence) 42.7 °C; (pH 2.5, CD) 47.3 °C and 46.6 °C; (pH 2.5, DSC) 51.1 °C. The Tm runs as follows: (pH 2.5, Fluorescence) 49.2 °C; (pH 2.75, CD) 57.5 °C and 53.4 °C; (pH 3, CD) 63 °C and 61.4 °C; (pH 3, DSC) 66.4 °C; (pH 3, Fluorescence) 65.3 °C; (pH 3.25, DSC) 73.6 °C. The “unfolding enthalpy (van 't Hoff)” value was 23.4 kcal/mol (pH 2.13, Fluorescence); 21.5 kcal/mol and 17.9 kcal/mol (pH 2.25, CD); 31.8 kcal/mol (pH 2.25, Fluorescence); 42.5 kcal/mol and 38.5 kcal/mol (pH 2.5, CD); 40.9 kcal/mol (pH 2.5, Fluorescence); 59.5 kcal/mol and 54.2 kcal/mol (pH 2.75, CD). For the same protein, the “unfolding enthalpy (van 't Hoff)” value by setting is: (pH 3, CD) 76.5 kcal/mol and 65.2 kcal/mol; (pH 3, Fluorescence) 66.9 kcal/mol. Further, the “unfolding enthalpy (calorimetric)” value runs as follows: (pH 2.5, DSC) 52.6 kcal/mol; (pH 3, DSC) 77.4 kcal/mol; (pH 3.25, DSC) 80.8 kcal/mol.

The values are drawn from FireProtDB (doi:10.1021/bi000610b).
